The chains are these.
T1: EsCas13d, nuclease-dead (Eubacterium siraeum, UniProt B0MS50, R295A;H300A;R849A;H854A)
T1 sequence: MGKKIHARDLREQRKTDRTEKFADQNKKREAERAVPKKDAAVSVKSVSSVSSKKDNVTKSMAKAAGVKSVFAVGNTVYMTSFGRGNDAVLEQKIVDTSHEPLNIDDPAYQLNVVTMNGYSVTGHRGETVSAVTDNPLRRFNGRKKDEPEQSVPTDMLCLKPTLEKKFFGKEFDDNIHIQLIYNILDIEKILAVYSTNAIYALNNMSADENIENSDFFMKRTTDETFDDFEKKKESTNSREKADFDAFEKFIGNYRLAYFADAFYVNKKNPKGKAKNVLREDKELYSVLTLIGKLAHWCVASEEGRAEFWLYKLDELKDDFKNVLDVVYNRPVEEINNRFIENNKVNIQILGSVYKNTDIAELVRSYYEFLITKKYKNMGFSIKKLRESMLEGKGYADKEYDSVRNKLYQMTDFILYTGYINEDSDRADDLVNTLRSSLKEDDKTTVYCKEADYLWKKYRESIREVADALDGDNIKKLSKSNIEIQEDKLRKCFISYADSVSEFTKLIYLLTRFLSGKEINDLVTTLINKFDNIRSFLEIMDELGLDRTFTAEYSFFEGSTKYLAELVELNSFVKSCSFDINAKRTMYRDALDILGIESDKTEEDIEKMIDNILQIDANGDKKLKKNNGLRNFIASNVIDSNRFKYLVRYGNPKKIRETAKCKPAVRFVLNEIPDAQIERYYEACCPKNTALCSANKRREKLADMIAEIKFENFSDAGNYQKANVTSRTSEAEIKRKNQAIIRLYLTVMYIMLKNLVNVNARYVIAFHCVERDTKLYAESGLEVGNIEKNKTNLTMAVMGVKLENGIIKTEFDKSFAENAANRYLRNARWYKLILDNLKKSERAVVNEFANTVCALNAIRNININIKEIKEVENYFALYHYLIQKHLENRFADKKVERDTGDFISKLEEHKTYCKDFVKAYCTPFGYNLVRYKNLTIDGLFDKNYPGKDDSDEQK

B1: target 1 C2U,U3A (mixed)
RNA 1: CACCCGUGCAAAAAUGCAGGGGUCUAAAACUGAGCGGAUAACCUCUCUAUGG
RNA 2: GGGAAUGGAUCCACAUCUACGAAUUCGUACCAUAGAGAGGUUAUCCGCAUACCGAGAUCGGAAGAGCACACGU
B2: target 1 G5U,U8A (mixed)
RNA 1: CACCCGUGCAAAAAUGCAGGGGUCUAAAACUGAGCGGAUAACCUCUCUAUGG
RNA 2: GGGAAUGGAUCCACAUCUACGAAUUCGUACCAUAGAGAGGUUAACCUCUCACCGAGAUCGGAAGAGCACACGU
B3: target 2 MT 5'PFS AUC 3'PFS ACA (mixed)
RNA 1: CACCCGUGCAAAAUUGCAGGGGUCUAAAACCUUCUCCAAAUUGUUUCAUCCU
RNA 2: GGGAAUGGAUCCACAUCUACGAAUUCAUCAGGAUGAAACAAUUUGGAGAAGACAAGAUCGGAAGAGCACACGU
B4: target 2 MT 5'PFS CGG 3'PFS UUU (mixed)
RNA 1: CACCCGUGCAAAAUUGCAGGGGUCUAAAACCUUCUCCAAAUUGUUUCAUCCU
RNA 2: GGGAAUGGAUCCACAUCUACGAAUUCCGGAGGAUGAAACAAUUUGGAGAAGUUUAGAUCGGAAGAGCACACGU
B5: target 2 MT 5'PFS GCA 3'PFS AGA (mixed)
RNA 1: CACCCGUGCAAAAUUGCAGGGGUCUAAAACCUUCUCCAAAUUGUUUCAUCCU
RNA 2: GGGAAUGGAUCCACAUCUACGAAUUCGCAAGGAUGAAACAAUUUGGAGAAGAGAAGAUCGGAAGAGCACACGU
B6: target 2 MT 5'PFS UAU 3'PFS AAC (mixed)
RNA 1: CACCCGUGCAAAAUUGCAGGGGUCUAAAACCUUCUCCAAAUUGUUUCAUCCU
RNA 2: GGGAAUGGAUCCACAUCUACGAAUUCUAUAGGAUGAAACAAUUUGGAGAAGAACAGAUCGGAAGAGCACACGU
B7: target 2 MT 5'PFS CGA 3'PFS CAA (mixed)
RNA 1: CACCCGUGCAAAAUUGCAGGGGUCUAAAACCUUCUCCAAAUUGUUUCAUCCU
RNA 2: GGGAAUGGAUCCACAUCUACGAAUUCCGAAGGAUGAAACAAUUUGGAGAAGCAAAGAUCGGAAGAGCACACGU
B8: target 2 MT 5'PFS UGG 3'PFS UCU (mixed)
RNA 1: CACCCGUGCAAAAUUGCAGGGGUCUAAAACCUUCUCCAAAUUGUUUCAUCCU
RNA 2: GGGAAUGGAUCCACAUCUACGAAUUCUGGAGGAUGAAACAAUUUGGAGAAGUCUAGAUCGGAAGAGCACACGU
B9: target 2 MT 5'PFS UUC 3'PFS CUC (mixed)
RNA 1: CACCCGUGCAAAAUUGCAGGGGUCUAAAACCUUCUCCAAAUUGUUUCAUCCU
RNA 2: GGGAAUGGAUCCACAUCUACGAAUUCUUCAGGAUGAAACAAUUUGGAGAAGCUCAGAUCGGAAGAGCACACGU
B10: target 2 MT 5'PFS CAU 3'PFS AAC (mixed)
RNA 1: CACCCGUGCAAAAUUGCAGGGGUCUAAAACCUUCUCCAAAUUGUUUCAUCCU
RNA 2: GGGAAUGGAUCCACAUCUACGAAUUCCAUAGGAUGAAACAAUUUGGAGAAGAACAGAUCGGAAGAGCACACGU
B11: target 2 MT 5'PFS UAU 3'PFS AAA (mixed)
RNA 1: CACCCGUGCAAAAUUGCAGGGGUCUAAAACCUUCUCCAAAUUGUUUCAUCCU
RNA 2: GGGAAUGGAUCCACAUCUACGAAUUCUAUAGGAUGAAACAAUUUGGAGAAGAAAAGAUCGGAAGAGCACACGU
B12: target 2 MT 5'PFS CUA 3'PFS ACC (mixed)
RNA 1: CACCCGUGCAAAAUUGCAGGGGUCUAAAACCUUCUCCAAAUUGUUUCAUCCU
RNA 2: GGGAAUGGAUCCACAUCUACGAAUUCCUAAGGAUGAAACAAUUUGGAGAAGACCAGAUCGGAAGAGCACACGU
B13: target 2 MT 5'PFS UAU 3'PFS AAG (mixed)
RNA 1: CACCCGUGCAAAAUUGCAGGGGUCUAAAACCUUCUCCAAAUUGUUUCAUCCU
RNA 2: GGGAAUGGAUCCACAUCUACGAAUUCUAUAGGAUGAAACAAUUUGGAGAAGAAGAGAUCGGAAGAGCACACGU
B14: target 2 MT 5'PFS GCA 3'PFS AGC (mixed)
RNA 1: CACCCGUGCAAAAUUGCAGGGGUCUAAAACCUUCUCCAAAUUGUUUCAUCCU
RNA 2: GGGAAUGGAUCCACAUCUACGAAUUCGCAAGGAUGAAACAAUUUGGAGAAGAGCAGAUCGGAAGAGCACACGU
B15: target 2 MT 5'PFS AUG 3'PFS UAC (mixed)
RNA 1: CACCCGUGCAAAAUUGCAGGGGUCUAAAACCUUCUCCAAAUUGUUUCAUCCU
RNA 2: GGGAAUGGAUCCACAUCUACGAAUUCAUGAGGAUGAAACAAUUUGGAGAAGUACAGAUCGGAAGAGCACACGU
B16: target 2 MT 5'PFS AGG 3'PFS CUU (mixed)
RNA 1: CACCCGUGCAAAAUUGCAGGGGUCUAAAACCUUCUCCAAAUUGUUUCAUCCU
RNA 2: GGGAAUGGAUCCACAUCUACGAAUUCAGGAGGAUGAAACAAUUUGGAGAAGCUUAGAUCGGAAGAGCACACGU
B17: target 2 MT 5'PFS AUU 3'PFS AAC (mixed)
RNA 1: CACCCGUGCAAAAUUGCAGGGGUCUAAAACCUUCUCCAAAUUGUUUCAUCCU
RNA 2: GGGAAUGGAUCCACAUCUACGAAUUCAUUAGGAUGAAACAAUUUGGAGAAGAACAGAUCGGAAGAGCACACGU
B18: target 2 MT 5'PFS UGG 3'PFS UCA (mixed)
RNA 1: CACCCGUGCAAAAUUGCAGGGGUCUAAAACCUUCUCCAAAUUGUUUCAUCCU
RNA 2: GGGAAUGGAUCCACAUCUACGAAUUCUGGAGGAUGAAACAAUUUGGAGAAGUCAAGAUCGGAAGAGCACACGU
B19: target 2 MT 5'PFS AUG 3'PFS UAU (mixed)
RNA 1: CACCCGUGCAAAAUUGCAGGGGUCUAAAACCUUCUCCAAAUUGUUUCAUCCU
RNA 2: GGGAAUGGAUCCACAUCUACGAAUUCAUGAGGAUGAAACAAUUUGGAGAAGUAUAGAUCGGAAGAGCACACGU
B20: target 2 MT 5'PFS CAU 3'PFS AAA (mixed)
RNA 1: CACCCGUGCAAAAUUGCAGGGGUCUAAAACCUUCUCCAAAUUGUUUCAUCCU
RNA 2: GGGAAUGGAUCCACAUCUACGAAUUCCAUAGGAUGAAACAAUUUGGAGAAGAAAAGAUCGGAAGAGCACACGU
B21: target 2 MT 5'PFS AGG 3'PFS AGG (mixed)
RNA 1: CACCCGUGCAAAAUUGCAGGGGUCUAAAACCUUCUCCAAAUUGUUUCAUCCU
RNA 2: GGGAAUGGAUCCACAUCUACGAAUUCAGGAGGAUGAAACAAUUUGGAGAAGAGGAGAUCGGAAGAGCACACGU
B22: target 2 MT 5'PFS CAU 3'PFS CAU (mixed)
RNA 1: CACCCGUGCAAAAUUGCAGGGGUCUAAAACCUUCUCCAAAUUGUUUCAUCCU
RNA 2: GGGAAUGGAUCCACAUCUACGAAUUCCAUAGGAUGAAACAAUUUGGAGAAGCAUAGAUCGGAAGAGCACACGU
B23: target 2 MT 5'PFS GAC 3'PFS UGU (mixed)
RNA 1: CACCCGUGCAAAAUUGCAGGGGUCUAAAACCUUCUCCAAAUUGUUUCAUCCU
RNA 2: GGGAAUGGAUCCACAUCUACGAAUUCGACAGGAUGAAACAAUUUGGAGAAGUGUAGAUCGGAAGAGCACACGU
B24: target 2 MT 5'PFS UGA 3'PFS CUU (mixed)
RNA 1: CACCCGUGCAAAAUUGCAGGGGUCUAAAACCUUCUCCAAAUUGUUUCAUCCU
RNA 2: GGGAAUGGAUCCACAUCUACGAAUUCUGAAGGAUGAAACAAUUUGGAGAAGCUUAGAUCGGAAGAGCACACGU
B25: target 2 MT 5'PFS AUG 3'PFS UAA (mixed)
RNA 1: CACCCGUGCAAAAUUGCAGGGGUCUAAAACCUUCUCCAAAUUGUUUCAUCCU
RNA 2: GGGAAUGGAUCCACAUCUACGAAUUCAUGAGGAUGAAACAAUUUGGAGAAGUAAAGAUCGGAAGAGCACACGU
B26: target 2 MT 5'PFS CAU 3'PFS AAG (mixed)
RNA 1: CACCCGUGCAAAAUUGCAGGGGUCUAAAACCUUCUCCAAAUUGUUUCAUCCU
RNA 2: GGGAAUGGAUCCACAUCUACGAAUUCCAUAGGAUGAAACAAUUUGGAGAAGAAGAGAUCGGAAGAGCACACGU
B27: target 2 MT 5'PFS CGA 3'PFS CAC (mixed)
RNA 1: CACCCGUGCAAAAUUGCAGGGGUCUAAAACCUUCUCCAAAUUGUUUCAUCCU
RNA 2: GGGAAUGGAUCCACAUCUACGAAUUCCGAAGGAUGAAACAAUUUGGAGAAGCACAGAUCGGAAGAGCACACGU

Here are results for 27 molecules from publication PMC10786891, “Massively parallel profiling of RNA-targeting CRISPR-Cas13d”.

This series has as its target T1, EsCas13d, nuclease-dead. The series can be described thus: crRNA (strand 1, pre-loaded); Mg2+; 40 mM Tris-HCl pH 7.5, 150 mM NaCl, 6 mM MgCl2, 1 mM DTT, 0.1% Tween-20, 0.2 mg/ml BSA; 25 C; 10 min per concentration, then washed. The note with it: tags: His6-TwinStrep-SUMO cleaved; N-terminal SNAP kept (SNAP-Surface 488); label: 3' end held by stalled T7 RNA polymerase.
B1 displayed a dissociation constant Kd of 16.1 ± 1.9 nM.
On to B2, for which the Kd was ~70 nM.
For B3 the value was ~70 nM.
In turn, B4 came in with a Kd of 15 ± 2.7 nM.
B5 had a Kd of 8.2 ± 1.7 nM.
The molecule B6 showed a dissociation constant Kd of 24 ± 2.8 nM.
B7 gave an equilibrium dissociation constant (Kd) of 6.5 ± 2 nM. Against the preceding molecule, the Kd is about 3.7-fold lower.
In the case of B8, the Kd amounted to 41 ± 11 nM.
On to B9, for which the equilibrium dissociation constant (Kd) was ~32 nM.
In turn, B10 returned a Kd of 4.2 ± 0.6 nM.
Molecule B11 came in with a Kd of 18 ± 3.5 nM.
For the molecule B12, the Kd amounted to 1.8 ± 0.4 nM.
Regarding B13, the Kd was determined as 20.9 ± 2.2 nM.
For B14 the value was 7.5 ± 1.6 nM; for B15, 12.6 ± 2.3 nM; for B16, 7.3 ± 0.9 nM.
In turn, B17 gave an equilibrium dissociation constant (Kd) of 7.3 ± 0.9 nM.
The molecule B18 came in with a Kd of 8.5 ± 0.9 nM.
For the molecule B19, the affinity, expressed as Kd, was 15 ± 4 nM.
Take B20: binding was characterised by a dissociation constant (Kd) of 4.2 ± 0.7 nM. This Kd is about 3.6-fold lower than that of the molecule before.
Molecule B21 gave an equilibrium dissociation constant (Kd) of 5.2 ± 0.6 nM.
B22 returned a Kd of 4.9 ± 0.9 nM.
For B23 the value was 23 ± 4 nM; for B24, 14.1 ± 3 nM; for B25, 7.9 ± 1.3 nM.
Molecule B26 came in with a dissociation constant (Kd) of 4.9 ± 0.7 nM.
In the case of B27, the equilibrium dissociation constant (Kd) stood at 9 ± 4 nM.

The term Kd denotes the free concentration of one partner at which half of the binding sites on the other are occupied at equilibrium, for simple one-to-one binding. A lower Kd goes with a tighter complex.
